Test results from PMC4795942 (Protein Engineering, Design and Selection, 2016).
Numbering of substitutions follows the chain as printed. Names may count otherwise. Values belong to the binder of their own block, whether it stands above or below them.

Target: biotinylated MmQSOX1Trx with a carboxy-terminal AviTag (Mus musculus, UniProt Q8BND5, biotin (on the AviTag))
Experiment: flow cytometry on cells

binding result: binds
B1: scFv492.1 template c with H49S S50M Y52Q (top binder of the CDR L2 library) displayed on yeast (scFv, V domains shown)
VH: QVQLKQSGPGLVAPSQSLSITCTVSGFSLTGYGVNWVRQSPGKGLEWLGMIWGDGRTEYKSALKSRLSITKDNSKSQVFLKMNSLQTDDTARYFCASDSKDPGSFAYWGQGTLVTVSA
VL: DVVMTQTHKFMSTSVGDRVSITCKASQDVSTAVAWYQQKSGQSPKLLISMASQRYTGVPDRFTGSGSGTDFTFTISSVQAEDLAVYYCQQHYAIPLTFGAGTKLELK

binding result: binds
B2: scFv492.1 S93A Y99S Y100K G101D S102P D58E T31G H49S S50M Y52Q (mutant d) displayed on yeast (scFv, V domains shown)
VH: B1 VH
VL: B1 VL with T31G
